{
  "source": "paper PMC11662666",
  "about": "(Nucleic Acids Research, 2024)",
  "key": {"[1]": {"biological_target": "Giardia intestinalis deoxyadenosine kinase (Giardia intestinalis (assemblage A isolate WB))", "test": "crystal structure + cryo-EM structure"}, "[2]": {"biological_target": "Giardia intestinalis deoxyadenosine kinase (Giardia intestinalis (assemblage A isolate WB))", "test": "mass photometry; Refeyn 2MP, protein in PBS; 50 nM by the methods, 65 nM by the results"}, "[3]": {"biological_target": "Giardia intestinalis deoxyadenosine kinase (Giardia intestinalis (assemblage A isolate WB))", "test": "SEC; Superdex 200 10/300 GL, 150 mM KCl, 50 mM Tris-HCl pH 7.6, 0.4 ml/min; protein at 0.1 mg/ml (4 μM); mass from a standard curve"}, "[4]": {"biological_target": "Giardia intestinalis deoxyadenosine kinase lacking the C-terminus (dAK-ΔC, amino acids 1-232) (Giardia intestinalis (assemblage A isolate WB))", "test": "mass photometry; Refeyn 2MP, protein in PBS; 50 nM by the methods, 65 nM by the results"}, "[5]": {"biological_target": "T1, deoxyadenosine kinase (dAK) (Giardia duodenalis, UniProt A8B9V6)", "T1 sequence (A8B9V6 1-251)": "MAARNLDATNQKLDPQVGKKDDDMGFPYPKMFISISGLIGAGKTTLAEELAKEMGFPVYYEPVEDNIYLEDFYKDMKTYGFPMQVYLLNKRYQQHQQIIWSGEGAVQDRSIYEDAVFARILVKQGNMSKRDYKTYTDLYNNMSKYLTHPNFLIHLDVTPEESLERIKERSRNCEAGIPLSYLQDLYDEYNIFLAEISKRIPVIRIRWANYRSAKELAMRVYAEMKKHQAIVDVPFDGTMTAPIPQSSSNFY", "test": "X-ray crystal structure at […] Å (co-purified ligand); HPLC of bound nucleotides; enzyme inhibition", "assay_type": "binding", "design": "gene GL50803_0017451; full-length dAK (untagged after TEV cleavage)"}, "[6]": {"biological_target": "Giardia intestinalis deoxyadenosine kinase lacking the N- and C-termini (dAK-ΔNΔC, amino acids 30-232) (Giardia intestinalis (assemblage A isolate WB))", "test": "mass photometry; Refeyn 2MP, protein in PBS; 50 nM by the methods, 65 nM by the results"}, "[7]": {"biological_target": "T1, deoxyadenosine kinase (dAK)", "test": "enzyme inhibition kinetics with purified dAK; co-purified dATP seen by HPLC", "assay_type": "biochemical", "design": "gene GL50803_0017451; full-length dAK"}, "[8]": {"biological_target": "Giardia intestinalis deoxyadenosine kinase lacking the N-terminus (dAK-ΔN, amino acids 30-251) (Giardia intestinalis (assemblage A isolate WB))", "test": "mass photometry; Refeyn 2MP, protein in PBS; 50 nM by the methods, 65 nM by the results"}, "[9]": {"substrate": "Nc1nc(Cl)nc2c1ncn2[C@H]1C[C@H](O)[C@@H](CO)O1", "test": "purified protein", "conditions": "ATP and Mg2+ (phosphate donor in assay) active site (2-Cl towards F72, modelled)"}, "[10]": {"substrate": "Nc1ncnc2c1ncn2[C@H]1C[C@H](O)[C@@H](CO)O1", "test": "purified protein", "conditions": "ATP and Mg2+ (phosphate donor in assay) active site"}, "[11]": {"substrate": "Nc1nc(Cl)nc2c1ncn2[C@@H]1O[C@H](CO)[C@@H](O)[C@@H]1F", "test": "steady-state kinetics with purified enzyme, HPLC (KM)", "assay_type": "biochemical, Giardia duodenalis", "conditions": "ATP and Mg2+ (phosphate donor in assay)"}, "[12]": {"substrate": "Nc1nc(F)nc2c1ncn2[C@@H]1O[C@H](CO)[C@@H](O)[C@@H]1O", "test": "steady-state kinetics with purified enzyme, HPLC (KM)", "assay_type": "biochemical, Giardia duodenalis", "conditions": "ATP and Mg2+ (phosphate donor in assay)"}, "[13]": {"substrate": "Nc1nc(I)nc2c1ncn2[C@H]1C[C@H](O)[C@@H](CO)O1", "test": "steady-state kinetics with purified enzyme, HPLC (KM)", "assay_type": "biochemical, Giardia duodenalis", "conditions": "ATP and Mg2+ (phosphate donor in assay)"}, "[14]": {"substrate": "Nc1ncnc2c1ncn2[C@@H]1O[C@H](CO)[C@@H](O)[C@@H]1F", "test": "steady-state kinetics with purified enzyme, HPLC (KM)", "assay_type": "biochemical, Giardia duodenalis", "conditions": "ATP and Mg2+ (phosphate donor in assay)"}, "[15]": {"substrate": "Nc1ncnc2c1ncn2[C@@H]1O[C@H](CO)[C@@H](O)[C@@H]1O", "test": "steady-state kinetics with purified enzyme, HPLC (KM)", "assay_type": "biochemical, Giardia duodenalis", "conditions": "ATP and Mg2+ (phosphate donor in assay)"}},
  "note": "“And” between values parts separate entries of the source, which are not always exact repeats. Equal entries are not always repeated.",
  "data": [
    {"molecule": "Giardia intestinalis deoxyadenosine kinase (enzyme)", "values": [
      {"measurement": "stoichiometry N", "setting": "[1]", "value": 4},
      {"measurement": "stoichiometry N", "setting": "[2]", "value": 4},
      {"measurement": "stoichiometry N", "setting": "[3]", "value": 4}
    ]},
    {"molecule": "Giardia intestinalis deoxyadenosine kinase lacking the C-terminus (dAK-ΔC, amino acids 1-232) (domain or fragment)", "values": [
      {"measurement": "stoichiometry N", "setting": "[4]", "value": "2 and 4"}
    ]},
    {"molecule": "Nc1ncnc2c1ncn2[C@H]1C[C@H](O)[C@@H](COP(=O)(O)O)O1", "note": "[dAMP, deoxyadenosine monophosphate]", "values": [
      {"measurement": "X-ray crystal structure at 2.1 Å (co-purified ligand); HPLC of bound nucleotides", "setting": "[5]", "value": "the density for active site II unambiguously allowed for the placement of a dAMP"}
    ]},
    {"molecule": "Giardia intestinalis deoxyadenosine kinase lacking the N- and C-termini (dAK-ΔNΔC, amino acids 30-232) (domain or fragment)", "values": [
      {"measurement": "stoichiometry N", "setting": "[6]", "value": 2}
    ]},
    {"molecule": "Nc1ncnc2c1ncn2[C@H]1C[C@H](O)[C@@H](COP(=O)(O)OP(=O)(O)OP(=O)(O)O)O1", "note": "[dATP, deoxyadenosine triphosphate]", "values": [
      {"measurement": "Ki", "setting": "[7]", "value": "840 ± 220", "unit": "nM"}
    ]},
    {"molecule": "Giardia intestinalis deoxyadenosine kinase lacking the N-terminus (dAK-ΔN, amino acids 30-251) (domain or fragment)", "values": [
      {"measurement": "stoichiometry N", "setting": "[8]", "value": "4 and 2"}
    ]},
    {"molecule": "deoxyadenosine kinase (dAK) (Giardia lamblia ATCC 50803) (protein, full-length dAK) MAARNLDATNQKLDPQVGKKDDDMGFPYPKMFISISGLIGAGKTTLAEELAKEMGFPVYYEPVEDNIYLEDFYKDMKTYGFPMQVYLLNKRYQQHQQIIWSGEGAVQDRSIYEDAVFARILVKQGNMSKRDYKTYTDLYNNMSKYLTHPNFLIHLDVTPEESLERIKERSRNCEAGIPLSYLQDLYDEYNIFLAEISKRIPVIRIRWANYRSAKELAMRVYAEMKKHQAIVDVPFDGTMTAPIPQSSSNFY", "values": [
      {"measurement": "Km", "setting": "[9]", "value": "0.51 ± 0.08", "unit": "µM"},
      {"measurement": "Vmax", "setting": "[9]", "value": 5.78, "unit": "µmol/min/mg"},
      {"measurement": "kcat", "setting": "[9]", "value": 2.79, "unit": "s⁻¹"},
      {"measurement": "kcat/Km", "setting": "[9]", "value": "5.48e+06", "unit": "M⁻¹ s⁻¹"},
      {"measurement": "Km", "setting": "[10]", "value": "1.12 ± 0.37", "unit": "µM"},
      {"measurement": "Vmax", "setting": "[10]", "value": 10.3, "unit": "µmol/min/mg"},
      {"measurement": "kcat", "setting": "[10]", "value": 4.96, "unit": "s⁻¹"},
      {"measurement": "kcat/Km", "setting": "[10]", "value": "4.43e+06", "unit": "M⁻¹ s⁻¹"},
      {"measurement": "Km", "setting": "[11]", "value": "6.23 ± 1.33", "unit": "µM"},
      {"measurement": "Vmax", "setting": "[11]", "value": 7.26, "unit": "µmol/min/mg"},
      {"measurement": "kcat", "setting": "[11]", "value": 3.51, "unit": "s⁻¹"},
      {"measurement": "kcat/Km", "setting": "[11]", "value": 563000, "unit": "M⁻¹ s⁻¹"},
      {"measurement": "Km", "setting": "[12]", "value": "8.40 ± 0.60", "unit": "µM"},
      {"measurement": "Vmax", "setting": "[12]", "value": 7.2, "unit": "µmol/min/mg"},
      {"measurement": "kcat", "setting": "[12]", "value": 3.48, "unit": "s⁻¹"},
      {"measurement": "kcat/Km", "setting": "[12]", "value": 414000, "unit": "M⁻¹ s⁻¹"},
      {"measurement": "Km", "setting": "[13]", "value": "4.78 ± 0.17", "unit": "µM"},
      {"measurement": "Vmax", "setting": "[13]", "value": 13.7, "unit": "µmol/min/mg"},
      {"measurement": "kcat", "setting": "[13]", "value": 6.63, "unit": "s⁻¹"},
      {"measurement": "kcat/Km", "setting": "[13]", "value": "1.39e+06", "unit": "M⁻¹ s⁻¹"},
      {"measurement": "Km", "setting": "[14]", "value": "2.66 ± 0.11", "unit": "µM"},
      {"measurement": "Vmax", "setting": "[14]", "value": 7.64, "unit": "µmol/min/mg"},
      {"measurement": "kcat", "setting": "[14]", "value": 3.69, "unit": "s⁻¹"},
      {"measurement": "kcat/Km", "setting": "[14]", "value": "1.39e+06", "unit": "M⁻¹ s⁻¹"},
      {"measurement": "Km", "setting": "[15]", "value": "6.70 ± 0.07", "unit": "µM"},
      {"measurement": "Vmax", "setting": "[15]", "value": 6.6, "unit": "µmol/min/mg"},
      {"measurement": "kcat", "setting": "[15]", "value": 3.19, "unit": "s⁻¹"},
      {"measurement": "kcat/Km", "setting": "[15]", "value": 476000, "unit": "M⁻¹ s⁻¹"}
    ]}
  ]
}
